The values that follow come from paper PMC4814140.

The assay has as its target Arabidopsis thaliana aquaporin AtTIP2;1 (Arabidopsis thaliana) (UniProt Q41951). The experiment in a line: crystal structure; AtTIP2;1 solubilised by n-octyl-β-D-glucoside, hanging drop vapor diffusion at room temperature, 50 mM magnesium/sodium acetate pH 5.0, 28% (v/v) PEG 400; space group I 4, 1.18 Å, partial twinning.

With “Arabidopsis thaliana aquaporin AtTIP2;1 (from UniProt Q41951 2-250) (natural protein)”, the stoichiometry N (as a rule, the number of molecules, sites or subunits per partner or assembly) was found to be 4.
